Where two headings read alike, the source gives them in different places. Bridges are numbered along the chain shown (N, C = ends). Where no end group is shown, it is not given here. Side-chain parts run from the residue outwards. [ ]: non-standard residue; d: D form. Ac‑Cys(PEG 40 kDa) = Cys whose alpha-amino group is acetylated and whose side chain carries a 40 kDa PEG; PEG 40 kDa = PEG (40 kDa) covalently attached to Cys; Aib = CC(C)(N)C(=O)O
Columns and labels:
Format in all cases: cell-based
[1] = tested on: glucagon receptor, GLP-1 receptor or GIP receptor; experiment: Agonist profile across receptors assigned from the cAMP reporter assay data; details: assigned from the in vitro EC50 data of Tables 1-4
GLP-1 receptor = target: T1, GLP-1 receptor (Homo sapiens, UniProt P43220); experiment: cAMP synthesis functional assay (firefly luciferase reporter in HEK293 cells), GLP-1 receptor; details: for EC50: read-out: GLP-1 Receptor EC50
T1 construct: expressed in transfected cells; host or cells: HEK293
T1 sequence (P43220 24-463, species assumed): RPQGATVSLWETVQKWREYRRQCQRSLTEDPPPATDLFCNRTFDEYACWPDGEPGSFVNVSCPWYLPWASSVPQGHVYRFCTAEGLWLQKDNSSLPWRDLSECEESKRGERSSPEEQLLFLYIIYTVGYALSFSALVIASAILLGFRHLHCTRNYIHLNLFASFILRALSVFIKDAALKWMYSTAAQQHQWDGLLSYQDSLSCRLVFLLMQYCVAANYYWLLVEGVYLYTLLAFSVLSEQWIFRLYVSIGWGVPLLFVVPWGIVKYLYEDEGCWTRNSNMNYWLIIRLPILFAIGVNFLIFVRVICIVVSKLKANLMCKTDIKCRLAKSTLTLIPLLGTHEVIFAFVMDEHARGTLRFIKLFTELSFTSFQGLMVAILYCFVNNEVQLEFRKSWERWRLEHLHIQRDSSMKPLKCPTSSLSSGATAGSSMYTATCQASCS

glucagon receptor = target: T2, glucagon receptor (Homo sapiens, UniProt P47871); experiment: cAMP synthesis functional assay (firefly luciferase reporter in HEK293 cells), glucagon receptor; details: for EC50: read-out: Glucagon Receptor EC50
T2 construct: expressed in transfected cells; host or cells: HEK293
T2 sequence (P47871 26-477): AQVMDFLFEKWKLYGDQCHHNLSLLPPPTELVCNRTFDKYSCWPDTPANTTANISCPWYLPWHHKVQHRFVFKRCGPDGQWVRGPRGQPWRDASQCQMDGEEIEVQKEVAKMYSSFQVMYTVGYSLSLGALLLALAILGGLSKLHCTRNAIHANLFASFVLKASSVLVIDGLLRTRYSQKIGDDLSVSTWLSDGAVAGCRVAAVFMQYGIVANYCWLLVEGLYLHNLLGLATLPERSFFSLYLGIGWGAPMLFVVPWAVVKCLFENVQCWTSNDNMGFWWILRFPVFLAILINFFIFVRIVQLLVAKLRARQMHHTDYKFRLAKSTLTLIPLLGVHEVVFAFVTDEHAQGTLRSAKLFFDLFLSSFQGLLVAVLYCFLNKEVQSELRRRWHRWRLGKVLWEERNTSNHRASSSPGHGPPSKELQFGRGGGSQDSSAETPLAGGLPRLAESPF

GIP receptor = target: T3, GIP receptor (Homo sapiens, UniProt P48546); experiment: cAMP synthesis functional assay (firefly luciferase reporter in HEK293 cells), GIP receptor; details: for EC50: read-out: GIP Receptor EC50
T3 construct: expressed in transfected cells; host or cells: HEK293
T3 sequence (P48546 22-466): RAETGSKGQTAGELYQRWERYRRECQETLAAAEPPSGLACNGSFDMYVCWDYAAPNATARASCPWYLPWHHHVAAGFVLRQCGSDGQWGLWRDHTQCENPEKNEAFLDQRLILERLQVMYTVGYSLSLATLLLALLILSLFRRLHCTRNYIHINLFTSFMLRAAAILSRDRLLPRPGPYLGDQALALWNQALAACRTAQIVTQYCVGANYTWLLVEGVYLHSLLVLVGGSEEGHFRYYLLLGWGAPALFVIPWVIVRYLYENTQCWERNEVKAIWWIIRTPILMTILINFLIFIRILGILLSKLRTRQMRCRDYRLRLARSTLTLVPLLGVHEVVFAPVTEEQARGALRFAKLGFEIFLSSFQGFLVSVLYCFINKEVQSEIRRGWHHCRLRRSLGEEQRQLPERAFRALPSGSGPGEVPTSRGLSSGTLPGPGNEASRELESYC

[2] = Table 1, relative to the native hormone of the indicated receptor
[3] = Table 4, relative to the native hormone
[4] = cAMP luciferase reporter assay as in Example 16
[5] = relative to the standard (Std.) EC50 of the same run

| Substance | receptor activity profile (glucagon / GLP-1 / GIP agonism) [1] | GLP-1 Receptor relative activity (GLP-1 receptor; [3]) [%] | Glucagon Receptor relative activity (glucagon receptor; [3]) [%] | GIP Receptor relative activity (GIP receptor; [3]) [%] | also measured |
| --- | --- | --- | --- | --- | --- |
| mt-172: glucagon analog peptide, C-terminal amide (Y[Aib]QGTFTSDYSIYLDEQAAKEFVC(PEG 40 kDa)WLLAG-NH2; lactam 16-20) | exemplary GLP-1/GIP/glucagon triagonist peptides | – | – | – | – |
| mt-175: glucagon analog peptide, C-terminal amide (Y[Aib]QGTFTSDYSIYLDEQAAKEFVC(PEG 40 kDa)WLLAGGPSSGAPPPS-NH2; lactam 16-20) | exemplary GLP-1/GIP/glucagon triagonist peptides | – | – | – | – |
| mt-205: glucagon analog peptide, C-terminal amide (Y[Aib]EGTFTSDYSIYLDEQAAKEFVNWLLAGRPSSGAPPPSC(PEG 40 kDa)-NH2; lactam 16-20) | – | – | – | – | GLP-1 Receptor relative activity (GLP-1 receptor; [2]): 14.22%; EC50 (GLP-1 receptor; Table 1): 0.204 nM; Glucagon Receptor relative activity (glucagon receptor; [2]): 0.01%; EC50 (glucagon receptor; Table 1): 672 nM; GIP Receptor relative activity (GIP receptor; [2]): 1.74%; EC50 (GIP receptor; Table 1): 1.66 nM |
| mt-225: pegylated monomer with lactam bridge between Glu16 and Lys20, PEG attached via dipeptide spacer (Y[Aib]QGTFTSDYSIYLDEQAAKEFVNWLLAGGPSSGAPPPSK([Ala-Ac‑Cys(PEG 40 kDa)])-NH2; lactam 16-20) | – | 29.59 | 1.99 | 0.90 | – |
| mt-227: pegylated monomer with lactam bridge between Glu16 and Lys20, PEG attached via dipeptide spacer (Y[Aib]QGTFTSDYSIYLDEQAAKEFVNWLLAGGPSSGAPPPSK([Arg-Ac‑Cys(PEG 40 kDa)])-NH2; lactam 16-20) | – | 36.25 | 1.27 | 1.29 | – |
| mt-248: sequence of mt-170 with an AIB at position 16 in lieu of the lactam (Y[Aib]QGTFTSDYSIYLD[Aib]QAAKEFVNWLLAGGPSSGAPPPSC(PEG 40 kDa)-NH2) | exhibited activities of glucagon/GLP-1/GIP triagonists | – | – | – | – |
| mt-281 (Y[Aib]QGTFTSDYSIYLDKQAA[Aib]EFVC(PEG 40 kDa)WLLAG-NH2) | – | – | – | – | EC50 (GLP-1 receptor; [4]): 0.216 nM; GLP-1 Receptor relative activity (GLP-1 receptor; [5]): 5.13%; Glucagon Receptor relative activity (glucagon receptor; [5]): 16.65%; EC50 (GIP receptor; [4]): 0.4 nM; GIP Receptor relative activity (GIP receptor; [5]): 6.68% |
| mt-376: acylated PEG-linked dimer, acylation at position 40 of each monomer (YXEGTFTSDYSIYLDKQAAXEFVNWLLAGGPSSGAPPPSKC; PEG-linked dimer, acylated at position 40; Mt-376; Homodimer; Xaa is Aib; 14 Carbon fatty acyl group covelently bound to Lysine; C-terminal amidation; Cys residue covalently attached to 20 kDa PEG which is in turn covalently attached to a Cys residue of a second peptide having the same structure) | – | 126.82 | 0.57 | 62.63 | EC50 (glucagon receptor; Table 4): 13.5 nM |
| mt-377: acylated PEG-linked dimer, acylation at position 40 of each monomer (YXEGTFTSDYSIYLDKQAAXEFVNWLLAGGPSSGAPPPSKC; PEG-linked dimer, acylated at position 40; Mt-377; homodimer; Xaa is Aib; 14 Carbon fatty acyl group covalently bound to Lysine; PEG (5kDa) covalently bound to Cysteine; C-terminal amidation; Cys residue covalently attached to 5 kDa PEG which is in turn covalently attached to a Cys residue of a second peptide having the same structure) | – | 177.88 | 1.98 | 138.11 | EC50 (glucagon receptor; Table 4): 3.9 nM |

Reference: patent US9062124B2, “GIP-based mixed agonists for treatment of metabolic disorders and obesity” (priority 2008, dated 2015)
